From patent publication US20180118786A1 (ECOLE POLYTECHNIQUE FEDERALE DE LAUSANNE EPFL, published 2018)
Starred links: 1 amine or outer side, 2 acyl side, 3 side chain; linkers in the order of their positions; H or OH if unused. Positions of bridges follow the written chain, without caps; N, C: chain ends. Non-standard residues stand in square brackets, D forms with d. No end group written: not given here. TATA = O=C(CC[*:1])N1CN(C(=O)CC[*:2])CN(C(=O)CC[*:3])C1; Phe(4-F) = N[C@@H](Cc1ccc(F)cc1)C(=O)O; β3hR = N=C(N)NCCC[C@H](N)CC(=O)O

Key:
[1] = biological target: T1, mouse FXIIa (mouse, UniProt Q80YC5 20-597, limits assumed); assay: protease inhibition assay, fluorogenic substrate
T1 construct: also called mouse α-FXIIa (MFXIIA; Molecular Innovations)
T1 sequence (looked up): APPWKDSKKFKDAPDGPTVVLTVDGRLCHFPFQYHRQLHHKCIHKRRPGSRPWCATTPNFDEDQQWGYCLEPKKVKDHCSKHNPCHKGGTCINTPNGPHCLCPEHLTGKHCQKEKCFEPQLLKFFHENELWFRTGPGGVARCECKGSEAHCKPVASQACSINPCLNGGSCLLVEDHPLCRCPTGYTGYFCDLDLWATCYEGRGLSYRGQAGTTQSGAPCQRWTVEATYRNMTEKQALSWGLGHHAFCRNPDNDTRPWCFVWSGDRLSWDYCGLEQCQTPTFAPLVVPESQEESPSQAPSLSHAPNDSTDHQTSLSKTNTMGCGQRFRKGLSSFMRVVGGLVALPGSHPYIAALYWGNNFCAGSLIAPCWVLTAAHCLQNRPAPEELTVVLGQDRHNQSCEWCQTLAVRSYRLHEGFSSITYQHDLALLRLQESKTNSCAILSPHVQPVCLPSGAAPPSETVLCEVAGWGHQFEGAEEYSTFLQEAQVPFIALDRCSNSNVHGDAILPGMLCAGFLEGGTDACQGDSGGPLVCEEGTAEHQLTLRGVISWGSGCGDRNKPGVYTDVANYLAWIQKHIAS

[2] = biological target: trypsin (human, UniProt P07477 24-247); assay: protease inhibition assay
[3] = biological target: T2, plasma kallikrein (human, UniProt P03952 20-638); assay: protease inhibition assay, specificity testing
T2 construct: also called PK

[4] = biological target: T1, mouse FXIIa; assay: protease inhibition assay
[5] = biological target: T3, human β-FXIIa (HFXIIAB; Molecular Innovations) (human, UniProt P00748 354-362; P00748 373-615, limits assumed); assay: protease inhibition assay
T3 construct: domain: catalytic domain; Bought; also called human b-FXIIa; human FXIIa

[6] = biological target: T4, factor XIa (human, UniProt P03951 19-625); assay: protease inhibition assay
T4 construct: also called FXIa

[7] = biological target: plasmin (human, UniProt P00747 97-810, limits assumed); assay: protease inhibition assay
[8] = biological target: T3, human β-FXIIa (HFXIIAB; Molecular …); assay: protease inhibition assay (FIG. 6)
[9] = biological target: T3, human β-FXIIa (HFXIIAB; Molecular …); assay: protease inhibition assay; remark: listed apart in the source
[10] = biological target: T3, human β-FXIIa (HFXIIAB; Molecular …); assay: protease inhibition assay; remark: listed apart in the source
[11] = biological target: T3, human β-FXIIa (HFXIIAB; Molecular …); assay: protease inhibition assay; remark: listed apart in the source

T3 sequence (P00748 373-615 limits assumed, one chain of several): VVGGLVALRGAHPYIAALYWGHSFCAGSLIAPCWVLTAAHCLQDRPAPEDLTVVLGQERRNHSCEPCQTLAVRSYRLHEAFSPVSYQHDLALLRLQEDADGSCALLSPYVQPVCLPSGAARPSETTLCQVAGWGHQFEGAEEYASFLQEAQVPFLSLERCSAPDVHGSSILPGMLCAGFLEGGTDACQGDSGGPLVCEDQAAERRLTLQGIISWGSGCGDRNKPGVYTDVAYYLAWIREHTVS
plasmin, sequence (P00747 97-810 limits assumed): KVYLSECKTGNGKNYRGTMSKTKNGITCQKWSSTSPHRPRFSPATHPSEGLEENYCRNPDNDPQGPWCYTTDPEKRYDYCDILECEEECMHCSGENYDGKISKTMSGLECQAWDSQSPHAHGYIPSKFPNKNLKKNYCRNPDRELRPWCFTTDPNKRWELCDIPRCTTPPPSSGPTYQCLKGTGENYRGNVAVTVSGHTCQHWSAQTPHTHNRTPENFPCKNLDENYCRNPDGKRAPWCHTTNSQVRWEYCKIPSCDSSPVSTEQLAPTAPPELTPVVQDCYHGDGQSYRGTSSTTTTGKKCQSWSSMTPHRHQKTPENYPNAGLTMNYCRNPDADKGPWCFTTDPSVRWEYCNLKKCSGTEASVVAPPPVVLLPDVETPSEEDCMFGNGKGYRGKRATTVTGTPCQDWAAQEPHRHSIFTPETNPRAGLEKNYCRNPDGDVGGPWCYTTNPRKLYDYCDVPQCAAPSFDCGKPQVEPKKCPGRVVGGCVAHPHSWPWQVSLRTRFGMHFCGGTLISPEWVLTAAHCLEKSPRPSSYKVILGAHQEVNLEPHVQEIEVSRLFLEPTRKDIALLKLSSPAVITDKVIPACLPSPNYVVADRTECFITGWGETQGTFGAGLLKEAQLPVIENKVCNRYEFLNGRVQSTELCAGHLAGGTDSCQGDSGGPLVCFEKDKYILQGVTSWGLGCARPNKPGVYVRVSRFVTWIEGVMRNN
T2 sequence (P03952 20-638 limits assumed): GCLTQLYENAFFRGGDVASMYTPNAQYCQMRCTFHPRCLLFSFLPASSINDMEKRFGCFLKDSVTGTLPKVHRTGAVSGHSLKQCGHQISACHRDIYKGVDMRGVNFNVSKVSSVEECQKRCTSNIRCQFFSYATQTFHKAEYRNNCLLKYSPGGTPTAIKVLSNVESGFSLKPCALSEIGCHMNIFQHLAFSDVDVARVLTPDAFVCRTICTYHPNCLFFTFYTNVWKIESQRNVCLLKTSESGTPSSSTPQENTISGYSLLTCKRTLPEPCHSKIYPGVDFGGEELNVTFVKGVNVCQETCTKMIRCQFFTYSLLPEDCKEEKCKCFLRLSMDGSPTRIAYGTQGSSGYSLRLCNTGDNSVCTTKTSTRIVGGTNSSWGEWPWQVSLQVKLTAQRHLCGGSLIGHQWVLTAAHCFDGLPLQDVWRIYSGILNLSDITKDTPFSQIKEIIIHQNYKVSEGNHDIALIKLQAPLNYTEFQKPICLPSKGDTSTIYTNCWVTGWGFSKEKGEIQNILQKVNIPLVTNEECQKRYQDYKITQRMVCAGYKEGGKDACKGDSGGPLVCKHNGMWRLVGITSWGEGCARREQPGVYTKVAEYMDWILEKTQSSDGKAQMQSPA

B1: FXII618 (peptide)
peptide: H-RCFRLPCRQLRCR-NH2
modifications: linker 2-7-12 via TATA
notes: Bicyclic; free N-terminus; also called peptide 1; bicyclic peptide 1
[1]
  Ki: 252 nM
[2]
  Ki: 5000 nM
[3]
  binding result: binds

B2: JS17m (FXII618, Arg8 to His) (peptide)
peptide: H-RCFRLPCHQLRCR-NH2
modifications: linker 2-7-12 via TATA
SMILES: CC(C)C[C@@H]1NC(=O)[C@H](CCC(N)=O)NC(=O)[C@H](Cc2c[nH]cn2)NC(=O)[C@@H]2CSCCC(=O)N3CN(CN(C3)C(=O)CCSC[C@H](NC(=O)[C@@H](N)CCCNC(=N)N)C(=O)N[C@@H](Cc3ccccc3)C(=O)N[C@@H](CCCNC(=N)N)C(=O)N[C@@H](CC(C)C)C(=O)N3CCC[C@H]3C(=O)N2)C(=O)CCSC[C@@H](C(=O)N[C@@H](CCCNC(=N)N)C(N)=O)NC(=O)[C@H](CCCNC(=N)N)NC1=O
notes: also called Arg8→His (H)
[4]
  Ki: 80 nM
[5]
  Ki: 21.6 nM

B3: corn trypsin inhibitor (other, UniProt P01088 29-155, looked up)
chain: SAGTSCVPGWAIPHNPLPSCRWYVTSRTCGIGPRLPWPELKRRCCRELADIPAYCRCTALSILMDGAIPPGPDAQLEGRLEDLPGCPREVQRGFAATLVTEAECNLATISGVAECPWILGGGTMPSK
notes: also called CTI
[6]
  Ki: 12500 nM
[7]
  Ki: 5000 nM
[2]
  Ki: 7 nM

B4: FXII618 variant with P in position six replaced by S (peptide)
peptide: RCFRLSCRQLRCRW-NH2
modifications: linker 2-7-12 via TATA; N-terminus assumed
SMILES: CC(C)C[C@@H]1NC(=O)[C@H](CCC(N)=O)NC(=O)[C@H](CCCNC(=N)N)NC(=O)[C@@H]2CSCCC(=O)N3CN(CN(C3)C(=O)CCSC[C@H](NC(=O)[C@@H](N)CCCNC(=N)N)C(=O)N[C@@H](Cc3ccccc3)C(=O)N[C@@H](CCCNC(=N)N)C(=O)N[C@@H](CC(C)C)C(=O)N[C@@H](CO)C(=O)N2)C(=O)CCSC[C@@H](C(=O)N[C@@H](CCCNC(=N)N)C(=O)N[C@@H](Cc2c[nH]c3ccccc23)C(N)=O)NC(=O)[C@H](CCCNC(=N)N)NC1=O
[8]
  Ki: < 100 nM

B5: peptide 18 (peptide 2, Pro6 to leucine) (peptide)
peptide: RCFRLLCRQLRCRW-NH2
modifications: linker 2-7-12 via TATA; N-terminus assumed
SMILES: CC(C)C[C@@H]1NC(=O)[C@H](CCC(N)=O)NC(=O)[C@H](CCCNC(=N)N)NC(=O)[C@@H]2CSCCC(=O)N3CN(CN(C3)C(=O)CCSC[C@H](NC(=O)[C@@H](N)CCCNC(=N)N)C(=O)N[C@@H](Cc3ccccc3)C(=O)N[C@@H](CCCNC(=N)N)C(=O)N[C@@H](CC(C)C)C(=O)N[C@@H](CC(C)C)C(=O)N2)C(=O)CCSC[C@@H](C(=O)N[C@@H](CCCNC(=N)N)C(=O)N[C@@H](Cc2c[nH]c3ccccc23)C(N)=O)NC(=O)[C@H](CCCNC(=N)N)NC1=O
[8]
  Ki: < 100 nM
[9]
  fold reduction of activity vs peptide 2: < 2 fold

B6: peptide 15 (peptide 2, Pro6 to alanine) (peptide)
peptide: RCFRLACRQLRCRW-NH2
modifications: linker 2-7-12 via TATA; N-terminus assumed
SMILES: CC(C)C[C@@H]1NC(=O)[C@H](CCCNC(=N)N)NC(=O)[C@H](Cc2ccccc2)NC(=O)[C@@H](NC(=O)[C@@H](N)CCCNC(=N)N)CSCCC(=O)N2CN3CN(C2)C(=O)CCSC[C@@H](C(=O)N[C@@H](CCCNC(=N)N)C(=O)N[C@@H](Cc2c[nH]c4ccccc24)C(N)=O)NC(=O)[C@H](CCCNC(=N)N)NC(=O)[C@H](CC(C)C)NC(=O)[C@H](CCC(N)=O)NC(=O)[C@H](CCCNC(=N)N)NC(=O)[C@H](CSCCC3=O)NC(=O)[C@H](C)NC1=O
[8]
  Ki: < 100 nM
[9]
  fold reduction of activity vs peptide 2: < 2 fold

B7: JS7m (FXII618, Arg1 to D-Arg-D-Ser) (peptide)
peptide: H-[dR][dS]CFRLPCRQLRCR-NH2
modifications: linker 3-8-13 via TATA
SMILES: CC(C)C[C@@H]1NC(=O)[C@H](CCC(N)=O)NC(=O)[C@H](CCCNC(=N)N)NC(=O)[C@@H]2CSCCC(=O)N3CN(CN(C3)C(=O)CCSC[C@H](NC(=O)[C@@H](CO)NC(=O)[C@H](N)CCCNC(=N)N)C(=O)N[C@@H](Cc3ccccc3)C(=O)N[C@@H](CCCNC(=N)N)C(=O)N[C@@H](CC(C)C)C(=O)N3CCC[C@H]3C(=O)N2)C(=O)CCSC[C@@H](C(=O)N[C@@H](CCCNC(=N)N)C(N)=O)NC(=O)[C@H](CCCNC(=N)N)NC1=O
notes: also called Arg1→D-Arg-D-Ser (rs)
[10]
  Ki: 18 nM

B8: JS33-R (rsCF^4…^bC) (peptide)
peptide: H-[dR][dS]C[Phe(4-F)]RLPCHQL[β3hR]C-NH2
modifications: linker 3-8-13 via TATA
SMILES: CC(C)C[C@@H]1NC(=O)[C@H](CCC(N)=O)NC(=O)[C@H](Cc2c[nH]cn2)NC(=O)[C@@H]2CSCCC(=O)N3CN(CN(C3)C(=O)CCSC[C@H](NC(=O)[C@@H](CO)NC(=O)[C@H](N)CCCNC(=N)N)C(=O)N[C@@H](Cc3ccc(F)cc3)C(=O)N[C@@H](CCCNC(=N)N)C(=O)N[C@@H](CC(C)C)C(=O)N3CCC[C@H]3C(=O)N2)C(=O)CCSC[C@@H](C(N)=O)NC(=O)C[C@H](CCCNC(=N)N)NC1=O
[11]
  Ki: 0.4 nM
